Results: patent US7795221B2, “Linear natriuretic peptide constructs” (Palatin Technologies, Inc., priority 2006, dated 2010)
Square brackets hold non-standard residues; d marks the D form. Ends that are not written are not given here. Peptide text beside a SMILES is read from it. * marks the point of attachment. Piperazin2one(3S-Bu,6R-CO) = CCCC[C@@H]1NC[C@H](C(=O)*)NC1=O; X1 = N=C(N)NCCC[C@H]1C(=O)N[C@@H](C(N)=O)CN1*; keto‑piperazine surrogate = not defined here; Nle = CCCC[C@H](N)C(=O)O

B1: Construct 1-16 (peptide)
peptide: [Nle]AHFGGR[Nle]DRISAY[keto‑piperazine surrogate]
modifications: reading uncertain; also: further groups not given here
notes: Linear synthetic construct modelled on mini-ANP

Key:
[1] = set-up: species or system Sprague-Dawley rats; conditions: rat, in vivo, iv, 2 mg/kg
Protocol: . […] The total run time was 6 minutes.

[2] = biological target: T1, human natriuretic peptide receptor A (human, UniProt P16066 33-1061); test: competitive inhibition of [125I]-ANP binding to HEK-hNPRA membrane homogenates
T1 construct: whole, on cells; The cGMP assay used whole HEK-hNPRA cells; also called NPRA; hNPRA
T1 sequence (looked up): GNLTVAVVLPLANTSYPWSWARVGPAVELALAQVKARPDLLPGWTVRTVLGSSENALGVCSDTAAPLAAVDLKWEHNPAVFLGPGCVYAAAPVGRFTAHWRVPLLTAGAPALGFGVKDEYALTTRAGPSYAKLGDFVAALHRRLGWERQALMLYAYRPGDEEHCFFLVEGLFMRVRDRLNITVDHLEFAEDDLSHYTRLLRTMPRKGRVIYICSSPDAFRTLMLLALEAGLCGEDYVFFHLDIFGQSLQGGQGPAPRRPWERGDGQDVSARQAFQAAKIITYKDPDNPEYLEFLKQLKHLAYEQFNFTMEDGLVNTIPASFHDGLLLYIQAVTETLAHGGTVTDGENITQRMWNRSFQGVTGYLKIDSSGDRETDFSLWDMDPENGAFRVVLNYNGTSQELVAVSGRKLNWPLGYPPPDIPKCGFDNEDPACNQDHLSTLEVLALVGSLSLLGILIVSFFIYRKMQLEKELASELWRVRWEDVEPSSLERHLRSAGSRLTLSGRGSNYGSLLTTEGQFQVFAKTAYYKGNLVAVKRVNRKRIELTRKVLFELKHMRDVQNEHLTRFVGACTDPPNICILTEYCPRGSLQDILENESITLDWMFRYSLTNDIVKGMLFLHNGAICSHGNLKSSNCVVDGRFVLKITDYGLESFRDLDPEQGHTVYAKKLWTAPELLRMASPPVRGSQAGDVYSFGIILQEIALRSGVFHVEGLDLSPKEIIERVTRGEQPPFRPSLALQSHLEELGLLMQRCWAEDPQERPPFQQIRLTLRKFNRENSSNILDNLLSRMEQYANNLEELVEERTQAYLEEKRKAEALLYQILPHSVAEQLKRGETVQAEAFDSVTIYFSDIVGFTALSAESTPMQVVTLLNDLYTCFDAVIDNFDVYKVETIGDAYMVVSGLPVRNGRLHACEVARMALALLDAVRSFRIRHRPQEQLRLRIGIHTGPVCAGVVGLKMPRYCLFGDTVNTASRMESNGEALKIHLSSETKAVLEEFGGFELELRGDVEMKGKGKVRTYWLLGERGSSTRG
Protocol: Competitive binding assay. A competitive inhibition binding assay was performed using crude membrane homogenates prepared from HEK-hNPRA cells. To prepare membrane homogenates, cells were rinsed with phosphate-buffered saline and incubated for 15 minutes at 4° C. in hypotonic lysis buffer (10 mM Tris, pH 7.4+5 mM EDTA). Cells were transferred from plates to polypropylene tubes and homogenized. Homogenates were centrifuged at 25,000×g for 20 minutes. Pellets were resuspended in buffer consisting of 50 mM Tris (pH 7.4) and 1 mM EDTA, homogenized and centrifuged at 25,000×g for 20 minutes. Pellets were resuspended in buffer consisting of 100 mM Tris (pH 7.4) and 10 mM MgCl_2 and stored at −80° C. until needed. On the day of an assay, homogenates were thawed and homogenized. […] Assays were stopped by addition of cold wash buffer (phosphate-buffered saline) followed by filtration using a vacuum manifold. Bound radioactivity was determined using a gamma counter. […] Data were analyzed using GraphPad Prism® curve-fitting software.

[3] = biological target: T1, human natriuretic peptide receptor A; test: cell-based or functional assay

Row | Molecule | AUC [1] [µM·h] | Vd [1] [L/kg] | clearance [1] [mL/min/kg] | half-life [1] [min] | Ki [2] [nM] | EC50 (accumulation of intracellular cGMP) [3] [nM]
1 | CCCC[C@@H]1NC[C@H](C(=O)N[C@@H](C)C(=O)N[C@@H](Cc2c[nH]cn2)C(=O)N[C@@H](Cc2ccccc2)C(=O)NCC(=O)NCC(=O)N[C@@H](CCCNC(=N)N)C(=O)N[C@@H](CCCC)C(=O)N[C@@H](CC(=O)O)C(=O)N[C@@H](CCCNC(=N)N)C(=O)N[C@H](C(=O)N[C@@H](CO)C(=O)N[C@@H](C)C(=O)N[C@@H](Cc2ccc(O)cc2)C(=O)N2C[C@H](C(N)=O)NC(=O)[C@@H]2CCCNC(=N)N)[C@@H](C)CC)NC1=O [Construct 1-30] ({Piperazin2one(3S-Bu,6R-CO)}-AHFGGR[Nle]DRISAY-X1) | 0.139 | 0.6 | 131 | 6 |  | 
2 | [keto‑piperazine surrogate]AHFGGR[Nle]DRISAY[keto‑piperazine surrogate] (reading uncertain; also: further groups not given here, Linear synthetic construct) [Construct 1-30] |  |  |  |  | 8.7 | 80.5
3 | [keto‑piperazine surrogate]AHFGGR[Nle]DRISAYR (reading uncertain; also: further groups not given here, Linear synthetic construct) [Construct 1-9] |  |  |  |  | 14.5 | 550
4 | B1 |  |  |  |  | 88.5 | 340
5 | [keto‑piperazine surrogate]AHFGGR[Nle]DRISAY[keto‑piperazine surrogate] (reading uncertain; also: further groups not given here, Linear synthetic construct) [Construct 1-49] |  |  |  |  | 0.2 | ~12
